Experimental data: patent US20260139049A1 (PEDIATRIC IMMUNITY AND HEALTHCARE GUANGZHOU BIOTECHNOLOGY, published 2026)
Numbering of substitutions follows the chain as printed.

T1: human CLDN6 (human, UniProt P56747 1-220)
T1 construct: whole, on cells; four-transmembrane protein; also called claudin-6; HEK293T-CLDN6
T1 sequence (looked up): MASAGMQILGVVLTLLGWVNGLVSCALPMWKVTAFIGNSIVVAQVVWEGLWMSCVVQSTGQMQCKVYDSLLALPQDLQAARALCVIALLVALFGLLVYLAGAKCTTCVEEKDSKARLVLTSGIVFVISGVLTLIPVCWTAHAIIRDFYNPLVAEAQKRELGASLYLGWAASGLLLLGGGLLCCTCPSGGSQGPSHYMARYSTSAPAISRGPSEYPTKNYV

B1: PiH1003 (antibody, human IgG1, kappa, V domains shown)
VH: QVQLVQSGAEVKKPGASVKVSCKASGYTFTDYNMHWVRQAPGQGLEWIGYVNPNNGATSYNQKFKGRATMTVDTSTSTVYMELSSLRSEDTAVYNCARWDGYVYYYGLDYWGQGTLVTVSS
VL: DIQMTQSPSSLSASVGDRVTITCKASDHINNWLAWYQQKPGKVPKLLISGATSLETGVPSRFSGSGSGTDYTLTISSLQPEDVATYYCQQYWSTPYTFGGGTKLEIKR
notes: humanized from 51C10H4; IgG1; also called 51-VH3 + VL3
B2: PiH1007 (antibody, human IgG1, kappa, V domains shown)
VH: B1 VH
VL: B1 VL with D17G, K45R
notes: humanized from 51C10H4; IgG1; also called 51-VH3 + VL4
B3: PiH1002 (antibody, human IgG1, kappa, V domains shown)
VH: B1 VH with A68V
VL: B1 VL
notes: humanized from 51C10H4; IgG1; also called 51-VH2 + VL3
B4: PiH1006 (antibody, human IgG1, kappa, V domains shown)
VH: B1 VH with A68V
VL: B1 VL with D17G, K45R
notes: humanized from 51C10H4; IgG1; also called 51-VH2 + VL4
B5: PiH1001 (antibody, human IgG1, kappa, V domains shown)
VH: B1 VH with V72R, N95Y
VL: B1 VL
notes: humanized from 51C10H4; IgG1; also called 51-VH1 + VL3
B6: PiH1008 (antibody, human IgG1, kappa, V domains shown)
VH: B1 VH with G44S, T74K
VL: B1 VL with D17G, K45R
notes: humanized from 51C10H4; IgG1; also called 51-VH4 + VL4
B7: PiH1005 (antibody, human IgG1, kappa, V domains shown)
VH: B1 VH with V72R, N95Y
VL: B1 VL with D17G, K45R
notes: humanized from 51C10H4; IgG1; also called 51-VH1 + VL4
B8: PiH1004-VH-Mutation8-VL (antibody, human IgG1, kappa, V domains shown)
VH: B1 VH with G44S, V51L, T74K
VL: B1 VL
notes: improved antibody from PiH1004
B9: PiH1004-VH-Mutation11-VL (antibody, human IgG1, kappa, V domains shown)
VH: B1 VH with G44S, T74K, Y110F
VL: B1 VL
notes: as for B8
B10: PiH1004-VH-VL-Mutation2 (antibody, human IgG1, kappa, V domains shown)
VH: B1 VH with G44S, T74K
VL: B1 VL with I29V
notes: as for B8
B11: PiH1004-VH-VL-Mutation3 (antibody, human IgG1, kappa, V domains shown)
VH: B1 VH with G44S, T74K
VL: B1 VL with N31Q
notes: as for B8
B12: PiH1004-VH-VL-Mutation4 (antibody, human IgG1, kappa, V domains shown)
VH: B1 VH with G44S, T74K
VL: B1 VL with A51G
notes: as for B8
B13: PiH1004-VH-VL-Mutation7 (antibody, human IgG1, kappa, V domains shown)
VH: B1 VH with G44S, T74K
VL: B1 VL with S93H
notes: as for B8
B14: PiH1004-VH-VL-Mutation6 (antibody, human IgG1, kappa, V domains shown)
VH: B1 VH with G44S, T74K
VL: B1 VL with W92G
notes: as for B8
B15: PiH2011 (antibody, human IgG1, kappa, V domains shown)
VH: QVQLVQSGAEVKKPGASVKVSCKASGYTFTDYNMHWVRQATGQGLEWIGYINPNNGATNYNQKFKGRATLTVNKSISTAYMELRSLRSEDTAVYYCARWDGYVYYYGMDYWGQGTLVTVSS
VL: B1 VL with K45R, T69K, S93N
notes: humanized from 54B5A7; IgG1; also called 54-VH7 + VL5
B16: PiH2009 (antibody, human IgG1, kappa, V domains shown)
VH: B15 VH with L70M, V72R
VL: B1 VL with K45R, T69K, S93N
notes: humanized from 54B5A7; IgG1; also called 54-VH5 + VL5
B17: PiH2010 (antibody, human IgG1, kappa, V domains shown)
VH: B15 VH with L70M, V72R, Y95N
VL: B1 VL with K45R, T69K, S93N
notes: humanized from 54B5A7; IgG1; also called 54-VH6 + VL5
B18: PiH2012 (antibody, human IgG1, kappa, V domains shown)
VH: B15 VH with Q39K, G44S, L70M, V72R, Y95N
VL: B1 VL with K45R, T69K, S93N
notes: humanized from 54B5A7; IgG1; also called 54-VH8 + VL5

What follows are binders tested against T1, human CLDN6 (assay: FACS on HEK293T-CLDN6 cells).
Protocol: To detect a binding capacity of a chimeric or humanized antibody to CLDN6, a CLDN6-expressing cell line HEK293T-CLDN6 and a CLDN6-negative control cell line HEK293T were washed three times with PBS. 1×10⁵ test cells and 50 μL of an antibody solution to be tested were added to a 96-well plate, and incubated at 4° C. for 1 h. The cells were then washed three times with PBS. […] Finally, cells were washed three times with PBS, and signals were read using FACS.
An EC50 value (a concentration of an antibody that binds to half of binding sites at equilibrium) is calculated through nonlinear regression.

Row | EC50 [µg/mL] | Binder
1 | 0.455 | B1
2 | 0.374 | B2
3 | 0.635 | B3
4 | 0.536 | B4
5 | 0.488 | B5
6 | 0.447 | B6
7 | 0.372 | B7

What follows are binders tested against T1, human CLDN6 (assay: FACS on CHO-K1-CLDN6 cells, against PiH1004 (FIG. 40)).

Row | binding result | Binder
8 | binds | B8
9 | binds | B9
10 | binds | B10
11 | binds | B11
12 | binds | B12
13 | binds | B13
14 | binds | B14

The binders below were run against T1, human CLDN6 (assay: FACS on PA-1 tumour cells; target on the cells taken as CLDN6).
Protocol: (§1) 50 μL of an antibody to be tested was added to a 96-well plate, then 1×10⁵ cells were added to each well, and incubation was conducted at 4° C. for 1 h. Cells were washed three times with PBS. […] Finally, cells were washed three times with PBS, and signals were read using FACS. A binding capacity of the antibody to each tumor cell was analyzed based on detection data.

Row | EC50 [µg/mL] | Binder
15 | 0.883 | B1
16 | 0.697 | B2
17 | 0.754 | B3
18 | 0.75 | B4
19 | 0.631 | B5
20 | 0.455 | B6
21 | 0.505 | B7

These binders were tested against T1, human CLDN6 (assay: FACS on HepG2 tumour cells; target on the cells taken as CLDN6).
Protocol: as §1

Row | EC50 [µg/mL] | Binder
22 | 2.48 | B2
23 | 1.5 | B4
24 | 1.76 | B5
25 | 0.886 | B6
26 | 2.35 | B7

Biological target: T1, human CLDN6
Test: as above
Remark: another data set of the same source
Protocol: as §1

Row | EC50 [µg/mL] | Binder
27 | 4.7 | B15
28 | 1.11 | B16
29 | 1.4 | B17
30 | 0.444 | B18
